US10428347B2, “Herbicide-detoxifying enzymes and uses thereof” (priority 2017, dated 2019)

Legend:
[1] = Absorbance spectra assay of mecoprop degradation by ChD or CAC; type: biochemical; details: mecoprop 200 mg/L alone (no enzyme), 50 mM HEPES pH 7, one hour at 37° C.
Method: (§1) Small scale (1 mL) assays were performed to evaluate the ability of ChD and CAC to degrade MCPA-4 amine or mecoprop.
(§2) MCPA-4 amine and mecoprop have absorbance maxima (Amax) at approximately 230 and 280 nm. […] MCPA-4 amine or mecoprop end product generation is directly proportional to the degradation MCPA-4 amine or mecoprop, respectively.

[2] = Absorbance spectra assay of MCPA-4 amine degradation by ChD or CAC; type: biochemical; details: MCPA-4 amine 200 mg/L alone (no enzyme), 50 mM HEPES pH 7, one hour at 37° C.
Method: as §1, §2

[3] = Sorbitol dehydrogenase enzyme activity (NADH production at 340 nm); type: biochemical; details: for enzyme activity level: NAD^+ and sorbitol, absorbance readings at 340 nm at 5 min after the start of the reaction; for regeneration of NADH (NADH production, 0-36 min): vs no enzyme control and background A64
Description: To determine enzyme activity for sorbitol dehydrogenase in the production samples, reactions were set up with NAD^+, sorbitol and the sorbitol dehydrogenase enzyme collected in supernatant derived from the Bacillus subtilis A64 cultures. Absorbance at 340 nm was monitored with a BioTek SYNERGY HTX plate reader (BioTek Industries Inc.). […] The extinction coefficient of NADH at 340 nm (6220 M^−1 cm^−1) was used to estimate the enzyme activity of the sorbitol dehydrogenase enzyme. The enzyme activity was compared to commercially available sorbitol dehydrogenase enzyme produced from sheep liver (S-3764, Sigma-Aldrich).
NADH production was measured and reported as an average of 7 measurements and reported over a time series (0-36 min.) for the sorbitol dehydrogenase GutB (SDH GutB), the sorbitol dehydrogenase from sheep liver (SDH control) and compared to the A64 filtrate and no enzyme treatments both used as negative controls in the enzyme assay.

[4] = tested on: soybean seedlings; assay: Spray of enzyme-treated dicamba solution onto soybean seedlings; type: in vivo; details: 208 μM dicamba, immobilized enzyme, 30° C., soybean seedlings, one week
Method: Salicylate monooxygenase (SM, SEQ ID NO: 21) and hydroxyphenylacetate monooxygenase (HPAM, SEQ ID NO: 30) were immobilized on particles. […] Aliquots (1 ml) were taken from incubated samples at 0 minutes, 10 minutes, 30 minutes, 1 hour, 5 hours, 24 hours and 30 hours after the introduction of SM and immediately frozen to stop the detoxification reaction. NADPH consumption was quantified by measuring loss of absorbance at 340 nm using a spectrophotometer. Results for SM are shown in panel A of FIG. 10 and results for HPAM are shown in panel A of FIG. 11. Consumption of NADPH is proportional to the degradation of dicamba.
Immediately after taking the absorbance measurements, the 1 ml aliquots were mixed with a nonionic organosilicone surfactant copolymer (0.1% SILWET L77) and 200 μL of the mixture was sprayed onto 2.5-week-old soybean seedlings (six plants per treatment group, on average). The use of the surfactant ensured even distribution of the solutions on the plants. Control plants were sprayed with water+surfactant alone or dicamba+surfactant alone. After one week, the degree of herbicide damage or the degree of protection from dicamba-induced injury (in plants treated with SM) was assessed visually.

[5] = tested on: lentil plants; assay: Lentil seeds coated with immobilized enzyme, grown in dicamba-containing soil; type: in vivo
Method: For each treatment group, eighteen lentil seeds were coated with immobilized salicylate monooxygenase (SM, SEQ ID NO: 21) or hydroxyphenylacetate monooxygenase (HPAM, SEQ ID NO: 30), or with a water-only control (H2O) or a control containing only the particles used for immobilization, without any enzyme (“Particle Alone”). […] 50 ml of water was selected as this is the saturation point of this soil at this scale. Herbicides were allowed to sit in the soil for 24 hours before planting of coated seeds. Germination rate was measured at one week and root and shoot lengths were measured after two weeks.
Further data illustrating the protective effects of salicylate monooxygenase (SM) and hydroxyphenylacetate monooxygenase (HPAM) on lentil plants grown in dicamba-containing soil are provided in FIGS. 6-9. Lentil seeds were treated as described above with water alone, particle alone, or enzyme immobilized on a particle. […] Growth (shoot and root length) was measured at two weeks.

[6] = Method: A Bacillus subtilis (A64) control reaction, which was supernatant with no SM1 enzyme was performed in parallel. The reactions were incubated at 37° C. with 400 rpm stirring for two hours. Aliquots of the reactions were collected at time 0 (T0), 1 hour, and 2 hours, and frozen at −80° C.
HPLC column (Kinetex® 5 μm C18 100 Å, LC Column 50×4.6 mm) was equilibrated for 15 minutes with 35% acetonitrile and 65% 10 mM ammonium acetate with 0.1% formic acid in water. A volume of 10 μL of each sample was injected into Waters 2695 Separations Module with a 2996 Photodiode Array Detector. Samples were run isocratically (35% acetonitrile and 65% 10 mM ammonium acetate with 0.1% formic acid in water) for 2 minutes. […] An average of 3 measurements was run for each treatment sample.
The HPLC results as reported in FIG. 2 are the average of 3 sample measurements.

[7] = tested on: soybean plants; assay: Trifoliate damage scoring of soybean treated with SM1-dicamba reaction products; type: in vivo; details: V1 soybean (Morsoy Xtra), 100 μL reaction product diluted 1:24 with 0.01% SILWET L-77 on trifoliate leaves, 6 plants; Time (hours) 2; scale 0-5
Description: These SM1-dicamba degradation products were applied to soybean seedlings (variety, Morsoy Xtra). […] The plants were scored based on trifoliate damage using the scale as described in Table 27.

## Cc1cc(Cl)ccc1OC(C)C(=O)[O-].[K+] (racemic) [Mecoprop, Potassium (RS)-2-(2-methyl-4-chlorophenoxy)propionate, reference compound]
[1]
  Absorbance Maxima at Wavelength (λ) 230: 1.723
  Absorbance Maxima at Wavelength (λ) 252: 0.2562
  Absorbance Maxima at Wavelength (λ) 280: 1.214

## Cc1cc(Cl)ccc1OCC(=O)O [MCPA-4-Amine, 2-methyl-4-chlorophenoxyacetic acid, reference compound]
[2]
  Absorbance Maxima at Wavelength (λ) 230: 1.739
  Absorbance Maxima at Wavelength (λ) 252: 0.2573
  Absorbance Maxima at Wavelength (λ) 280: 1.506

B1: GutB sorbitol dehydrogenase: sorbitol dehydrogenase from Bacillus subtilis strain 168, SEQ ID NO: 288, cofactor-regenerating enzyme (protein, listed as Bacillus subtilis)
chain: MTHTVPQNMKAAVMHNTREIKIETLPVPDINHDEVLIKVMAVGICGSDLHYYTNGRIGNYVVEKPFILGHECAGEIAAVGSSVDQFKVGDRVAVEPGVTCGRCEACKEGRYNLCPDVQFLATPPVDGAFVQYIKMRQDFVFLIPDSLSYEEAALIEPFSVGIHAAARTKLQPGSTIAIMGMGPVGLMAVAAAKAFGAGTIIVTDLEPLRLEAAKKMGATHIINIREQDALEEIKTITNDRGVDVAWETAGNPAALQSALASVRRGGKLAIVGLPSQNEIPLNVPFIADNEIDIYGIFRYANTYPKGIEFLASGIVDTKHLVTDQYSLEQTQDAMERALQFKNECLKVMVYPNR
[3]
  enzyme activity level: 207 U/mL
  regeneration of NADH (NADH production, 0-36 min): sufficient ability to reduce NAD to NADH

B2: HPAM: hydroxyphenylacetate monooxygenase from Bacillus cereus BGSC 6E1, amino acid SEQ ID NO: 30 (protein, listed as Bacillus cereus)
chain: MAIRTGEQYIEGLRKRNPEIWIGGRKVTDVVNEDVFREPIIQIANLYDMQHNPEYQDKITHICEETGERVSNAFLVPRNYEDLKVRRELFEVWAKATYGLMGRTPDFLNVTVTSMASNSWFFEKFNPEWGANIKNYYKHIRDNDLFLTHAIINPQNDRSKASHQQEDETMHLGVVSETAEGMYVSGAKMLATLAPITDEVIIYSYPSFKPGDERHAISFAVPIDAPGLRILCREPMQDGKRSLFDHPLASRFEEMDALLVFHNVFIPWDKVFIYQSVEAGNQLYPKTGIGHQPAHQSGVRGLVKLSFAAEVAMKLADSIGVDGFLNVQNQLAELMQDVETIRALLQVAEYEYETNSYGEVIPARLPLDTIRSLLPKMYPRAIEIIQTIGAGGLLMSPTGADFMNPEIHDDMQKYYIGREGVSSEERVRLFKLAWDLCGEAFGQRLLQYERYYSGDPVRKMGMFYNAYKKQQTFSLVNNALQSSSSEGALS
[4]
  incubation time of enzyme with dicamba giving plants equivalent to the water control: 30 min
[5]; lentil seeds coated with immobilized enzyme, soil with dicamba 0.1× or […] label rate, one week, vs water and particle-alone controls
  germination rate: positive effect
[5]; two-week-old lentil, soil with dicamba 0.1× label rate (0.588 mg/L), vs water only or particle only controls (FIG. 6, FIG. 8)
  shoot length: longer shoot lengths

B3: SDH control: commercially available sorbitol dehydrogenase enzyme produced from sheep liver (S-3764, Sigma-Aldrich) (protein, UniProt P07846 1-354, looked up)
Sorbitol dehydrogenase: AKPAAENLSLVVHGPGDLRLENYPIPEPGPNEVLLKMHSVGICGSDVHYWQGRIGDFVVKKPMVLGHEASGTVVKVGSLVRHLQPGDRVAIQPGAPRQTDEFCKIGRYNLSPTIFFCATPPDDGNLCRFYKHNANFCYKLPDNVTFEEGALIEPLSVGIHACRRAGVTLGNKVLVCGAGPIGLVNLLAAKAMGAAQVVVTDLSASRLSKAKEVGADFILEISNESPEEIAKKVEGLLGSKPEVTIECTGVETSIQAGIYATHSGGTLVLVGLGSEMTSVPLVHAATREVDIKGVFRYCNTWPMAISMLASKSVNVKPLVTHRFPLEKALEAFETSKKGLGLKVMIKCDPSDQNP
[3]
  enzyme activity level: 1447 U/mL
  regeneration of NADH (NADH production, 0-36 min): greater regeneration of NADH

B4: SM1: salicylate monooxygenase from Bacillus cereus strain B377, amino acid SEQ ID NO: 251 (nucleotide SEQ ID NO: 243) (protein, listed as Bacillus cereus)
chain: MGKEKKYDAIVVGAGPVGLVAGLALQKKGISTLVIEADSFGRPRPGSRAIYLHSASLKLLEETSEGLGFTLAHNGIIWPVKRTFYKGKEVYVRDYGKDENLKFNRLPHFTALHQDEIEKHMYEACIKEGVEFLWDAPVKKLHITDSGVELTITNDEILKAQYVIGCDGARSIVREEAGLTFEGPRTADTFIVVDAKEDETDPLPLERIFHYQHPAMEGRNVMFVPFKGGWRIDLQLLESDNPDDYTNIESVKTWLPKVMDAKYAERITWVSSYRFHQVVANSFTDEKRRVLLAGEAAHLFAPFGARGLNSGIPDAVLAARGIEKALHSHSEEERVEAIEAAAKERRIAAQWNRDASTTALHHLQGSSPEMNMKRDIAASLVSIVPRLGRWLDEGPYGPKFGPPELTTKY
[6]; HPLC, Time 2 hours
  Percent Dicamba Concentration Relative to T0 control: 84.3%
[6]; dicamba 100 ppm, 250 μL SM1 enzyme, 0.5 mM NADH, HEPES pH 7.0, 1 hour of incubation (FIG. 17)
  dicamba concentration (HPLC): decreased concentrations
[6]; dicamba 100 ppm, 250 μL SM1 enzyme, 0.5 mM NADH, HEPES pH 7.0, 2 hours of incubation (FIG. 17)
  decrease in dicamba concentration (HPLC): approximately 50%
[7]
  average trifoliate damage score: 2.8
